The results in this text go back to the nanobody polyreactivity screen of Harvey et al. (2022).

A short description of the data set: yeast display, Sf9 membrane polyspecificity reagent, FACS + sequencing; frameworks hold sequencing errors. The method, boiled down:
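In a synthetic yeast display library (Saccharomyces cerevisiae BJ5465), nanobody expression was induced with galactose for 36–48 hours. FACS gates were set low and high (top ~1%) using anti-HA fluorescence for expression and streptavidin fluorescence for binding of the Sf9 membrane reagent. Each polyreactivity label is drawn from the gate of origin.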
For the sequence “QVPLVESGGGLVQAGGSLRLSCAASGRIFIQNTMGWDSQAPGKERELVAAINRSAGSTYYADSVKGRFTISRDNAKNTVYLQMNSLKTEDTAVYYCAAYASRRYGYWGQVTQVTVSS”, the “polyreactivity (PSR sort gate)” value is reported as “high polyreactivity”.
As for “QVQLVESGGGLVQAGGSLRLSCAASGRIFGVYAMGWYRQAPGKERELVAAISEGGGSTNYADSVKGRFTISRDNAKNTVYLQMNSLKPEDTAVYYCAADRSYYGYGYWGQGTQVTVSS”, the entry is “low polyreactivity”; as for “QVQLVESGGGLVQAGGSLRLSCAASGFTFGFYAMGWYRQGPGKERELVAASTRSGGTTYYADSVKGRFTISRDNAKNTVYLQMNSLKPEDTAVYYCAADYTKYYRRYYYWGQGTQVTVSS”, “high polyreactivity”.
With “QVQLVESGGGLVQAGGSLRLSCAASGRIFRRNTMGWYRQAPGKERELVATISKNGGSTYYADSVKGRFTISRDNAKNTVYLQMNSLKPADTAVYYCNAPDPSSTSYFPYELGYWGQGTQVTVSS”, the “polyreactivity (PSR sort gate)” value is given as “high polyreactivity”.
“QVQLVESGGGLVQAGGSLRLSCAASGFTFYYNAMGWYRQAPGKERELVAAISTGGSTYYADSVKGRFTISRDNAKNTVYLQMNSLKPEDTAVYYCAAKTYGRRWSYYYWGQGTQVTVSS”: the “polyreactivity (PSR sort gate)” value is listed as “high polyreactivity”.
As for “QVQLVESGGGLVQAGGSLRLSCAATGRTFGSNAMGWYRQAPGKERELVAAISLRGGRTYYADSVKGRFTISRDTAKNTVYLQMNSLKPEDTAVYYCNAVHYLYGARSRLTYDYWGQGTQVTVSS”, the entry is “high polyreactivity”; as for “QVQLVESGGGLVQAGGSLRLSCAASGSTFKWYGMGWYRQAPGKERELVATINYSSSTTYYADSVKGRFTISRDNAKNTVYLQMNSLKPEDTAVYYCAKGVYWGTKSTYDYWGQGTQVTVSS”, “high polyreactivity”.
As to “QVQLVESGGGLVQAGGSLRLSCAASGLTFAYNTMGWYRQAPGKEREFVASISSSGGNTYYADSVKGRFTISRDNAKNTVYLQMNSLKPEDTAVYYCAAKKKYHYVASYKRFEYWGQVTQVTVSS”, the “polyreactivity (PSR sort gate)” value was “low polyreactivity”.
As for “QVQLVESGGGLVQAGGSLRLSCAASGHTFYYKALGWYTQAPGKEREFVATITESGTSTYYADSVKGRCTLSRDNAKNTVYLQMKSLKPEDTAGYYCAAQYWYVGGIALYDYWGQGTQVTVSS”, the entry is “low polyreactivity”; as for “QVQLVESGGGLVQAGGSLRLSCAASGSIFGYYTMGWYRQAPGKERELVATITSGGSTYYADSVKGRFTISRDNAKNTVYLQMNSLKPEDTAVYYCNADWYWRVYWGQGTQVTVSS”, “high polyreactivity”; as for “QVQLVESGGCLVQAGGSLRLICAASGIILTQNAMGWYRQAPGKERELVAAITESGARTYYADSVKGRFTISRDNAKNTVYLQMNSLKPEDTAVYYCAAHTRTSGHNYWGQGTQVTVSS”, “low polyreactivity”.
As for “QVQLVESGGGLVQAGGSLRLSCAASGSIFWNNDMGWYRPAPGKERELVAGISGGSTNYADSVKGRFTISRDNAKNTVYLQMNSLKPEDTAVYYCATERQWESRLEAYDYWGQGTQVTVSS”, the entry is “low polyreactivity”.
As for “QVHLVESGGGLVQAGGSLRLSCAASGSIFGPYAMGWYRQAPGKERELVAAITYRGDSTYYADSVKGRFTISRDYAKNTVYLQINSLKPEDTAVYYCAADYFYANYDYWGQGTQVTVSS”, the entry is “high polyreactivity”; as for “QVQLVESGGGLVQAGVSLRLSCAASGSTFGANAMGWYRQAPGKEREFVAAISGSGTTTYYADSVKGRFTISRDNAKNTVYLQMNSLKPEDTAVYYCAKTRKAHWLEYWGQGTQVTVSS”, “low polyreactivity”.
As to “QVQLVESGGGIVQAGVILRLSCAATGITFWNNAMRWYRQARGKERELVATISSNGGRTYYADSVKGRFTISRDNAKNTVYLQMNSLKPEDTAVYYCKARQVLYGLYLRAYPYEYWGQGTQVTVSS”, the “polyreactivity (PSR sort gate)” value is listed as “low polyreactivity”.
Next, “QVQLVESGGGLVQAGGSLRLSCAASGLTFVSYAMGWSRQAPGQEREFVAAINRSGGSPYYADSVKGRFTISRDNAKTTVYLQMNSLKPEDTALYYCAARRNLAYYHSGYWGQGTQVTVSS”: “high polyreactivity”; “QVQLVESGGGLVQAGGSLRLSCAASGFIFGYNAMGWYRQAPGKERELVASITINDGSTYYADSVKGRFTISRDNAKNTVYLQMNCLKPEDTAVYYCAAGGWYSLDILPYRYDYWGQGTQVTVSS”: “low polyreactivity”; “QVQLVESGGGLVQAGGSLRLSCAASGSTFTPYAMGWYRQAPGKERELVAAITWRGGSTYYADSVKGRFTISRDNAKNTVYLQMNSLKPEDTAVYYCAAEDYLYFFYAYGYWGQGTQVTVSS”: “high polyreactivity”.
Next, “QVQLVESGGGLVQAGGSLRLSCAASGIIFVYYGKGWYRQAPGKERELVAAISWSGDDTYYADSVKGRFTISRDNAKNTVYLQMNSLKPEDTAVYYCAARPGYVHIDFDYWGQGSQVTVSS”: “low polyreactivity”.
“QVQLVESGGGLVQAGGSLRLSCAASGSTFGYNAMGWYRQAPGKERELVAAISYSGGSTSYADSVKGRFTISRDNAKNTVYLQMNSLKPEDTAVYYCAADEGTGQASLSSNLYDYWGQGTQVTVSS”: the “polyreactivity (PSR sort gate)” value is “low polyreactivity”.
Consider “QVQLVESGGGLVQAGGSLRLSCAASGRTSNVYAMGWYRQAPGKERELVAAISSRDGTTYYADSVKGRFTISRDNAKNTVYLQMNSLKPEDTAVYYCAAAVLSYADYYYDYEYWGQGTQVTVSS”, for which the “polyreactivity (PSR sort gate)” value is on record as “high polyreactivity”.
For “QVQLVESGGGLVQAGGSLRLSCAASGFTIIRYAMGWYRQAPGKERDLVAAITTSGSGTYYAHSVKGRFTISRDNAKNTVYLQMNSLKPEDTAVDYCATDYRYRSYSRGAHDYWGQGTQVTVSS”, the “polyreactivity (PSR sort gate)” value is reported as “low polyreactivity”.
Next, “QVQLVDSGGGLVQAGGSLRLSCAASGLTITVYVMGWYRQAPGKERELVAAIDWSGGSTYYADSVKGRFTISRDNAKNTVYLQMNSLKPEDTAVYYCASETTDYAYYGFTYDYWGQGTQVTVSS”: “low polyreactivity”; “QVQLVESGGGLVQAGGSLRLSCAASGSTFRYYTMGWYRQAPGKERELVASISRSGSTSYADSVKGRFTISRDNAKNTVYLLMNSLKPEDTAVYYCARESFFGAYAGYDYWGQGTQVTVSS”: “low polyreactivity”; “QVQLVESGGGLVQAGGSLRISCAASGITFYRYTMGWYRQAPGKERELVAAISRSGSSTYYADSVKGRFTISRDNAKNTVDLQMNSLIPEDTAVYYCASRFGDMGYWGQGTQVTVSA”: “high polyreactivity”.
As for “QVQLVESGGGLVQAGGSLRLSCAASGSTFQYYAMGWYRQAPGKEREMVAAISASVDTTFYADSVKGRFTISRDNAKNTVYLQMNSLKPEDTAVYYCATDWPHWRKVYWFDYWGQGTQVTVSS”, the “polyreactivity (PSR sort gate)” value was “low polyreactivity”.
On to “QVQLVESGGGLVQAGGSLRLSCAASGRTFGGYAMGWYRQAPGKERELVATISYSSGSTYYADSVKGRFTISRDNAKNTVYLQLNSLKTEDTAVYYCAAEYRSRSWRMDYWGQGTQVTVSS”, for which the “polyreactivity (PSR sort gate)” value was “high polyreactivity”.
As for “QVQLVESGGGLVQAGASLRLSCAASGSIFVLYGMGWYRQAPGKERELVAAISAGITNYADSVKGRFTISRDNAKNTVYLQMNSLKPEDTAVYYCATVDGAYQYTYDFWGQGTQVTVSS”, the entry is “low polyreactivity”; as for “QVQLVESSGGLVQAGGSLSLICAASGIIFYGYAMGWYRQAPGKERELVASIRSGSNTYYADSVKGRFTISRDNAKNTVYLQMNSLKPEDTAFYSCAARVVPATFRFIRYPHPYYYWGQGTQVTVSS”, “low polyreactivity”; as for “QVQLVESGGVLVQAGGSLRLSCAASGITFIGYAMGWYRQAPGKERELVASITSGANTNYADSVKGRFTISRDNAKNTVYLQMNSVKAEDTAVYYCAAPEHGTYANILGEPLDYWGQGTQVTVSS”, “low polyreactivity”.
